The subject of data set [1] is T1, synthetic peptide KKKSPGEYVNIEFG, based on the IRS-1 phosphorylation site Tyr 895.
T1 sequence: KKKSPGEYVNIEFG

In data set [2] the test system is T2, synthetic peptide substrate KKEEEEYMMMMG
T2 sequence: KKEEEEYMMMMG

Data set [3] addresses synthetic peptide substrate …. Nature of the data set: cell-based or functional assay.
Substrate in data set [4]: CC[C@H](C)[C@H](NC(=O)[C@H](CC(N)=O)NC(=O)[C@@H](NC(=O)[C@H](Cc1ccc(O)cc1)NC(=O)[C@H](CCC(=O)O)NC(=O)CNC(=O)[C@@H]1CCCN1C(=O)[C@H](CO)NC(=O)[C@H](CCCCN)NC(=O)[C@H](CCCCN)NC(=O)[C@@H](N)CCCCN)C(C)C)C(=O)N[C@@H](CCC(=O)O)C(=O)N[C@@H](Cc1ccccc1)C(=O)NCC(=O)O
In words: Km of IRS-1 Tyr 895-derived peptide substrate for IGF1RK. Format: biochemical, human. The following applies: other: peptide as substrate of IGF1RK.

In general, Km refers to the substrate concentration at which the rate is half of its maximum.

Consider “IGF1RK (phosphorylation state not stated)”, for which the Km entry in data set [1] is “The Km for this peptide was determined to be 128 µM for IGF1RK”.
In turn, IGF1RK, bis-phosphorylated form (2P) gave a Peptide Km in data set [2] of 130 µM.
Turning to IGF1RK, mono-phosphorylated form (1P), the Peptide Km in data set [2] came to 620 µM.
Same read-out and setting: then “IGF1RK, tris-phosphorylated, activated form (3P)”, with 120 µM.
“IGF1RK, tris-phosphorylated, activated form (3P) (enzyme)”: in data set [3], the Km for peptide ([γ-32P]ATP and phosphocellulose binding assay) stood at 150 µM.
Take “IGF1RK, unphosphorylated form (0P): tyrosine kinase domain of the human insulin-like growth factor 1 receptor, residues 956-1,256”: the “induction time of autophosphorylation at varying enzyme concentration (continuous spectrophotometric assay)” value is “the phosphorylation reaction was concentration dependent”. This molecule also came in with a Peptide Km in data set [2] of 1300 µM.

B1: IGF1RK (Homo sapiens) (protein)
chain: VYVPDEWEVAREKITMSRELGQGSFGMVYEGVAKGVVKDEPETRVAIKTVNEAASMRERIEFLNEASVMKEFNCHHVVRLLGVVSQGQPTLVIMELMTRGDLKSYLRSLRPEMENNPVLAPPSLSKMIQMAGEIADGMAYLNANKFVHRDLAARNCMVAEDFTVKIGDFGMTRDIYETDYYRKGGKGLLPVRWMSPESLKDGVFTTYSDVWSFGVVLWEIATLAEQPYQGLSNEQVLRFVMEGGLLDKPDNCPDMLFELMRMCWQYNPKMRPSFLEIISSIKEEMEPGFREVSFYYSEENK
notes: encoding residues 956-1,256 of the human insulin-like growth factor 1 receptor (IGF1RK); made in house; host or cells: Spodoptera frugiperda (Sf9) cells, baculovirus
As to B1, the Michaelis-Menten constant (Km) in data set [4] was 128 µM.

For the origin of these results see patent US20040142381A1, “Methods for designing IGF1 receptor modulators for therapeutics” (priority 2002, published 2004).
